Source: IntAct's records for PubMed 14679199

B1: SH3 and multiple ankyrin repeat domains protein 2 (Rattus norvegicus (Rat)), Q9QX74-4 (parent)
chain: MMSVPGGGAATVMMTGYNNGRYPRNSLYSDCIIEDKTVVLQKKDNEGFGFVLRGAKADTPIEEFTPTPAFPALQYLESVDEGGVAWQAGLRTGDFLIEVNNENVVKVGHRQVVNMIRQGGNHLVLKVVTVTRNLDPDDTARKKAPPPPKRAPTTALTLRSKSMTAELEELVDKASVRKKKDKPEEIVPASKPSRTAENVAIESRVATIKQRPTSRCFPAASDVNSVYERQGIAVMTPTVPGSPKGPFLGLPRGTMRRQKSIDSRIFLSGITEEERQFLAPPMLKFTRSLSMPDTSEDIPPPPQSVPPSPPPPSPTTYNCPRSPTPRVYGTIKPAFNQNPVAKVPPATRSDTVATMMREKGMFYRRELDRFSLDSEDVYSRSPAPQAAFRTKRGQMPENPYSEVGKIASKAVYVPAKPARRKGMLVKQSNVEDSPEKTCSIPIPTIIVKEPSTSSSGKSSQGSSMEIDPQATEPGQLRPDDSLTVSSPFAAAIAGAVRDREKRLEARRNSPAFLSTDLGDEDVGLGPPAPRMQPSKFPEEGGFGDEDETEQPLLPTPGAAPRELENHFLGGGEAGAQGEAGGPLSSTSKAKGPESGPAAALKSSSPASPENYVHPLTGRLLDPSSPLALALSARDRAMQESQQGHKGEAPKADLNKPLYIDTKMRPSVESGFPPVTRQNTRGPLRRQETENKYETDLSKDRRADDKKNMLINIVDTAQQKSAGLLMVHTVDIPVAGPPLEEEEDREDGDTKPDHSPSTVPEGVPKTEGALQISAAPEPAAAPGRTIVAAGSVEEAVILPFRIPPPPLASVDLDEDFLFTEPLPPPLEFANSFDIPDDRAASVPALADLVKQKKSDTPQPPSLNSSQPANSTDSKKPAGISNCLPSSFLPPPESFDAVTDSGIEEVDSRSSSDHHLETTSTISTVSSISTLSSEGGESMDTCTVYADGQAFVVDKPPVPPKPKMKPIVHKSNALYQDTLPEEDTDGFVIPPPAPPPPPGSAQAGVAKVIQPRTSKLWGDVTEVKSPILSGPKANVISELNSILQQMNRGKSVKPGEGLELPVGAKSANLAPRSPEVMSTVSGTRSTTVTFTVRPGTSQPITLQSRPPDYESRTSGPRRAPSPVVSPTELSKEILPTPPSAAAASPSPTLSDVFSLPSQSPAGDLFGLNPAGRSRSPSPSILQQPISNKPFTTKPVHLWTKPDVADWLESLNLGEHKETFMDNEIDGSHLPNLQKEDLIDLGVTRVGHRMNIERALKQLLDR

Variants of: B1
Conditions: with cftr_mouse Cftr

Row | effect of a mutation on the interaction | Variant
1 | disrupting interaction | H109A
2 | disrupting interaction | H109R
3 | with no effect | H109Q
